Test results as given in patent EP2832747A1 (Université Catholique de Louvain, dated 2015).

Target: T1, shGARP-TGFβ (human)
T1 construct: also called immobilized shGARP-TGFβ
Assay: BIACOR analysis (SPR), immobilized shGARP-TGFβ

T1 sequence (Q14392 20-627): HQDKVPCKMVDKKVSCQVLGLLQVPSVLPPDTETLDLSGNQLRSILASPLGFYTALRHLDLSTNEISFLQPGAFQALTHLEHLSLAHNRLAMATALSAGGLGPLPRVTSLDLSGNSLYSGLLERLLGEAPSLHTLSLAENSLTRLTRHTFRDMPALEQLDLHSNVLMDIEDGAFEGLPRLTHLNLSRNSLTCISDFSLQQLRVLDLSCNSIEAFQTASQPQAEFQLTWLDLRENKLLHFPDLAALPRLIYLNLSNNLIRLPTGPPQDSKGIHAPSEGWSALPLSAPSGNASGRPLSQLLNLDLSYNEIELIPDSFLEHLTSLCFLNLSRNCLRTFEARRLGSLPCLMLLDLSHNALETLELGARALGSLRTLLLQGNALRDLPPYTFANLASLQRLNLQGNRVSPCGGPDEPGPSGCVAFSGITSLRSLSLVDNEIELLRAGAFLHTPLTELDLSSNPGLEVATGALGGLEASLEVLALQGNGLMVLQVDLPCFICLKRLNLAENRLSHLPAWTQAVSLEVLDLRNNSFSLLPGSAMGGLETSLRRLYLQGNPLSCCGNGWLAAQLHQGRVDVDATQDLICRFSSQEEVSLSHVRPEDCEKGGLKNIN

Kd: 0.2 nM
B1: MHGARP8 (antibody, V domains shown)
VH: QVQLKESGPGLVAPSQSLSITCTVSGFSLTGYGINWVRQPPGKGLEWLGMIWSDGSTDYNSVLTSRLRISKDNSNSQVFLKMNSLQVDDTARYYCARDRNYYDYDGAMDYWGQGTSVTVSS
VL: DIQVTQSSSYLSVSLGDRVTITCKASDHIKNWLAWYQQKPGIAPRLLVSGATSLEAGVPSRFSGSGSGKNFTLSITSLQTEDVATYYCQQYWSTPWTFGGGTTLEIR
notes: Mouse monoclonal from hybridoma MHGARP8 (LMBP 10246CB); used biotinylated in flow cytometry; also called MGARPB; antibody of hybridoma LMBP 10246CB
